Where two headings read alike, the source gives them in different places.
T1: mFc tagged human LAG3 ECD recombinant protein (human, UniProt P18627 23-450)
T1 construct: extracellular domain; purchased from Biointron; not shown: mouse IgG Fc (mFc) tag
T1 sequence (looked up): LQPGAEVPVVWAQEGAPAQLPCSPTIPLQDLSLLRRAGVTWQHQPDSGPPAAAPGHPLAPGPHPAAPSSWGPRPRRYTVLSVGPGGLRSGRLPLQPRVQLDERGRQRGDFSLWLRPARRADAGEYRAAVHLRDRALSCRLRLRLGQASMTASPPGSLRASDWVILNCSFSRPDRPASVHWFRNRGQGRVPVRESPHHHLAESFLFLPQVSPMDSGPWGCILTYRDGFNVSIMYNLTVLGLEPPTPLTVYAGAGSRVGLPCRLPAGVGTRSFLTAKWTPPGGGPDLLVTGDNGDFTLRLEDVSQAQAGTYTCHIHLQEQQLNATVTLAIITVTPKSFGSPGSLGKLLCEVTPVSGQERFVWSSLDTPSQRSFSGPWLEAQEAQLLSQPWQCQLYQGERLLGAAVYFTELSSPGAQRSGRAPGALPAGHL

T2: human LAG3 (form used in Octet, Biacore and HDX-MS not given) (human, UniProt P18627 23-450, limits assumed)
T2 sequence (looked up): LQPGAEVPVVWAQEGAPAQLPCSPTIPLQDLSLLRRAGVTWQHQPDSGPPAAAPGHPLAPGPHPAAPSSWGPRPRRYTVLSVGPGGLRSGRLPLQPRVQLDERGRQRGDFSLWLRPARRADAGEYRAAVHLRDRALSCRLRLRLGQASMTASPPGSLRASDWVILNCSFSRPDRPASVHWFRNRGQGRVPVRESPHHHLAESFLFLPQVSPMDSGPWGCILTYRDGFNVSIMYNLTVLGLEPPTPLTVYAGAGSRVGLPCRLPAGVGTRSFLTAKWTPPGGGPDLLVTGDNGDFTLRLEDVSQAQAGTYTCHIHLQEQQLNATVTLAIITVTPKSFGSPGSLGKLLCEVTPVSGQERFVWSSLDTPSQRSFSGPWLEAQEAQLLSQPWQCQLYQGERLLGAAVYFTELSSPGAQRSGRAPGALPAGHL

T3: human LAG3, full length, stably expressed on cells (human, UniProt P18627 23-525)
T3 construct: whole, on cells; also called CHOK1-human LAG3
T3 sequence (looked up): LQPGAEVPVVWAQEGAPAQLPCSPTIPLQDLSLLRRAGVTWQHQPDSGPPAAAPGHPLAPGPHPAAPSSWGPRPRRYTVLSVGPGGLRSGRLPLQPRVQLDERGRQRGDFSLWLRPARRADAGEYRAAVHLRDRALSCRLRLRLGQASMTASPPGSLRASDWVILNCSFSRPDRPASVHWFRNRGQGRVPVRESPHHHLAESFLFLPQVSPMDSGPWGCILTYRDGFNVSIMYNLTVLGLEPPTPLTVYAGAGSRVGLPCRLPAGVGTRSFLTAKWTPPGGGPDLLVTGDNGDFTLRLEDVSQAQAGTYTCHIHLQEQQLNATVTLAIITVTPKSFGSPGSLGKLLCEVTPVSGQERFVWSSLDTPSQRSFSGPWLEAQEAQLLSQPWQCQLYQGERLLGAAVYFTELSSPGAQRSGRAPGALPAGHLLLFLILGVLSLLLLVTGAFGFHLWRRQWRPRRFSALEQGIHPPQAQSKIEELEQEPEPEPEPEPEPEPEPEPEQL

T4: hFc tagged human LAG3 ECD recombinant protein (human, UniProt P18627 23-450)
T4 construct: range 23-450; also called biotin labelled hFc tagged human LAG3 ECD; not shown: human IgG Fc tag
T4 sequence (looked up): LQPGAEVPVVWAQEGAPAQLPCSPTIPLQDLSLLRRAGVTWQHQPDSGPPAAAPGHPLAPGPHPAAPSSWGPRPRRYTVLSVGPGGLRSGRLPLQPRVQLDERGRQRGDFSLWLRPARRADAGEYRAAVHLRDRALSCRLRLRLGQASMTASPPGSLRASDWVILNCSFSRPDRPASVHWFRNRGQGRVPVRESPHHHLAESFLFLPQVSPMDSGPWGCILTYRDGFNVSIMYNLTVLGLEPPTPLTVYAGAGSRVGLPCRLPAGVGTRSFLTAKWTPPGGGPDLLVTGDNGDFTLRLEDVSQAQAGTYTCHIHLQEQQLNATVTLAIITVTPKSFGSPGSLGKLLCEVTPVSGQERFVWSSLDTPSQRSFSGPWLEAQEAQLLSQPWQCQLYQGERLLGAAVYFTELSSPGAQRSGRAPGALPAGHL

T5: human LAG3 ECD recombinant protein (plate coated, tag not stated) (human, UniProt P18627 23-450)
T5 construct: extracellular domain
T5 sequence (looked up): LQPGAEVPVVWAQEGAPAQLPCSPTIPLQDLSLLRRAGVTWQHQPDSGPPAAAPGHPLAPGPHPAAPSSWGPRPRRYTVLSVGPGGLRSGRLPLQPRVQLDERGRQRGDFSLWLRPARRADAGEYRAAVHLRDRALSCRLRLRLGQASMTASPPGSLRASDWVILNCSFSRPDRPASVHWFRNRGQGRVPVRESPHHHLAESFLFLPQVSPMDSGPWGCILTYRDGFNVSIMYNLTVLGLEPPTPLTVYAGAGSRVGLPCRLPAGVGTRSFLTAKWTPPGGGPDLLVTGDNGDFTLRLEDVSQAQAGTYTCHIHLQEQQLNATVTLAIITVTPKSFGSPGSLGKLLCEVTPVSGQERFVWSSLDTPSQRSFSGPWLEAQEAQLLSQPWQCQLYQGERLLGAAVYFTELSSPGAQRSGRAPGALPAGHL


Tests used:
[1] = molecular target: T1, mFc tagged human LAG3 ECD recombinant …; experiment: competitive FACS: mFc-LAG3 ECD binding to Raji cells (MHC II)
Description: (§1) Activity of the purified chimeric antibodies to block LAG3 and MHC II interaction was determined by competitive FACS assay. […] After washing, dye labeled anti-mouse Fc 2nd antibody (Sigma) was added and incubated at 37° C. for 1 hour. Fluorescence intensity was detected.

[2] = molecular target: T2, human LAG3 (form used in Octet, Biacore …); experiment: BLI (Octet)
[3] = molecular target: T3, human LAG3, full length, stably …; experiment: FACS on 293F cells stably expressing human LAG3
Description: (§2) Briefly the antibodies were incubated with 2×10⁵ target cells at 4° C. for 1 hour. After washing, fluorescence labeled anti-mouse IgG 2nd antibody (Life Technologies) was added and incubated at 4° C. for 1 hour. Geometric median fluorescence intensity (MFI) was detected and EC₅₀ was calculated using GraphPad Prism9.0.
(§3) MFI was detected and EC₅₀ was calculated using GraphPad Prism9.0.

[4] = molecular target: T4, hFc tagged human LAG3 ECD recombinant …; experiment: competitive ELISA format II: biotin hFc-LAG3 ECD binding to coated His-FGL1
Description: (§4) After washing, HRP labeled anti-His 2nd antibody (Sigma) was added and incubated at 37° C. for 1 hour. Then, 100 μl/well of TMB solution (Biotechnology) was added. After incubation for 15 minutes at room temperature, the reaction was stopped by the addition of 50 μl of 1N HCl. OD 450 nm was read. […] After washing, HRP labeled anti-SA 2nd antibody (Sigma) was added and incubated at 37° C. for 1 hour. Then, 100 μl/well of TMB solution (Biotechnology) was added. After incubation for 15 minutes at room temperature, the reaction was stopped by the addition of 50 μl of 1N HCl. OD 450 nm was read. […] The competition assay of format III is a competitive FACS assay. […] After washing, dye labeled anti-His 2nd antibody (Sigma) was added and incubated at 37° C. for 1 hour. Fluorescence intensity was detected.

[5] = molecular target: T3, human LAG3, full length, stably …; experiment: FACS on 293F cells stably expressing human LAG3; remark: listed apart in the source
Description: as §2, §3

[6] = molecular target: T1, mFc tagged human LAG3 ECD recombinant …; experiment: competitive FACS: mFc-LAG3 ECD binding to Raji cells (MHC II); remark: listed apart in the source
Description: as §1

[7] = molecular target: T2, human LAG3 (form used in Octet, Biacore …); experiment: BLI (Octet), 1:1 fit
Description: The purified chimeric antibodies were characterized for binding affinity against human LAG3 using Bio-Layer Interferometry technology (Octet system). The association and dissociation curves were fit with 1:1 binding model, and the Ka/Kd/KD values for each antibody were calculated.

[8] = molecular target: T5, human LAG3 ECD recombinant protein …; experiment: competitive ELISA format I: His-FGL1 binding to coated LAG3 ECD
Description: as §4

Row | IC50 [1] [nM] | TOP blocking (%) [1] [%] | Kd [2] [nM] | koff [2] [s⁻¹] | kon [2] [M⁻¹ s⁻¹] | EC50 [3] [nM] | TOP MFI [3] | IC50 [4] [nM] | TOP blocking (%) [4] [%] | EC50 [5] [nM] | TOP MFI [5] | IC50 [6] [nM] | TOP blocking (%) [6] [%] | Kd [7] [nM] | koff [7] [s⁻¹] | kon [7] [M⁻¹ s⁻¹] | Blocking ratio at 66.7 nM (%) [8] [%] | Binder
1 | 5.5 | 99.2 | 0.591 | 0.000153 | 259000 | 0.32 | 2990 | 1.5 | 81.3 | – | – | – | – | – | – | – | – | hu023.07 (antibody, human IgG4, V domains shown, humanized from 023c) VH: QVQLVQSGPEVKKPGASVKVSCKASGYTFTESPMNWVRQAPGQGFEWMGIIYTDTGEPTYAEEFKGRVTMTLDTSTSTVYMELSSLRSEDTAVYFCASDYGSILYWYFDVWGQGTLVTVSS VL: DIQMTQSPSSLSASVGDRVTITCKASQDVSTAVAWYQQKPGKAPKLLIYSASYRYTGVPSRFSGSGSGTDFTLTISSLQPEDFATYYCQQHYNAPPTFGQGTKLEIK
2 | 5.9 | 99.2 | 0.281 | 7.96e-05 | 284000 | 0.2 | 3200 | 1.3 | 82.8 | – | – | – | – | – | – | – | – | hu023.10 (antibody, human IgG4, V domains shown, humanized from 023c) VH: QVQLVQSGPELKKPGASVKVSCKASGYTFTESPMNWVRQAPGQGFEWMGIIYTDTGEPTYAEEFKGRFVFSLDTSVSTAYLQISSLKAEDTAVYFCVSDYGSILYWYFDVWGQGTLVTVSS VL: DIQMTQSPSSLSASVGDRVTITCKASQDVSTAVAWYQQKPGKAPKLLIYSASYRYTGVPSRFSGSGSGTDFTLTISSLQPEDFATYYCQQHYNAPPTFGQGTKLEIK
3 | 5.7 | 99.3 | 0.121 | 3.67e-05 | 303000 | 0.19 | 3100 | 1.2 | 83.2 | – | – | – | – | – | – | – | – | hu023.13 (antibody, human IgG4, V domains shown, humanized from 023c) VH: QIQLVQSGPELKKPGASVKISCKASGYTFTESPMNWVRQAPGQGFEWMGIIYTDTGEPTYAEEFKGRFVFSLDTSVSTAYLQISSLKAEDTAVYFCVSDYGSILYWYFDVWGQGTLVTVSS VL: DIQMTQSPSSLSASVGDRVTITCKASQDVSTAVAWYQQKPGKAPKLLIYSASYRYTGVPSRFSGSGSGTDFTLTISSLQPEDFATYYCQQHYNAPPTFGQGTKLEIK
4 | – | – | – | – | – | – | – | – | – | 2.6 | 247 | 12.4 | 96 | 2.72 | 0.000674 | 248000 | – | TSR-033 (antibody, V domains shown) VH: EVQLVQSGAEVKKPGATVKISCKASGFSIKDDYIHWVQQAPGKGLEWMGWIDAMNDDSQYSSKFQGRVTITVDTSTNTAYMKLSSLRSEDTAVYYCTYAFGGYWGQGTTVTVSS VL: DIVMTQTPLSLSVTPGQPASISCRSSQSLVHSDSNTYLHWYLQKPGQSPQLLIYLVSNRFSGVPDRFSGSGSGTDFTLKISRVEAEDVGVYFCGQSTHVPYAFGGGTKVEIK
5 | – | – | – | – | – | – | – | – | – | 2.4 | 394 | 3.9 | 95 | – | – | – | 67.8 | 033c (antibody, human IgG4, V domains shown, human IgG4 S228P / kappa chimeric antibody; also called chimeric antibody 033; not shown: human kappa light chain constant region (pcDNA3.4-hIgGk vector)) VH: EVQLQQSGAELVRPGASVKLSCTASDFNIKDDYIHWVKQRPEQGLEWIGWIDLENGDTEYASKFQGKATITADTSSNTAYLQLSSLTSEDTAVYYCTTKGSHWGQGTLVTVSA VL: DVVMTQIPLSLPVSLGDQASISCRSSQSLVYSNGNTYLNWYLQKPGQSPKLLIHKVSNRFSGVPDRFSGSGSGTDFTLKISRVEAEDLGVYFCSQSTHVPYTFGGGTKLEIR
6 | – | – | – | – | – | – | – | – | – | 1.3 | 289 | 4 | 64.6 | – | – | – | 41.2 | 048c (antibody, human IgG4, V domains shown, human IgG4 S228P / kappa chimeric antibody; also called chimeric antibody 048; not shown: human kappa light chain constant region (pcDNA3.4-hIgGk vector)) VH: EFQVQQSGPELVKPGASVKISCKASGYSFSDYNMNWLKQSTGKSLEWIGLVDPIYGTIRYNQKFKGKATLTVDQSSSTAYMQLNSLTSEDSAVYYCALITTSVRYFDYWGQGTTLTVSS VL: DVLMTQTPLSLPVSLGDQASISCRSSQNIVHTDGNTYLEWYLQKPGQSPKLLIYKVSNRFSGVPDRFSGSGSGTDFTLKISRVEAEDLGVYYCFQGSHVPPTFGGGTKLEIK
7 | – | – | – | – | – | – | – | – | – | 1.3 | 302 | 4.7 | 62 | – | – | – | 40.2 | 039c (antibody, human IgG4, V domains shown, human IgG4 S228P / kappa chimeric antibody; also called chimeric antibody 039; not shown: human kappa light chain constant region (pcDNA3.4-hIgGk vector)) VH: EFQLQQSGPELVKPGASVKISCKASGYSFTDYNLNWVRQSNGKSLEWIGLVDPIYGTIRYNQNFKDKATLTVDQSSSTAYMQLNSLTSEDSAVYYCASIMTAVRYFDHWGQGTTLTVSS VL: DVLMTQTPLFLPVSLGDQASISCRSSLNIVHSDGNTYLEWYLQKPGQSPKLLIYKVSNRFSGVPDRFSGSGSGTDFTLKISGVEAEDLGVYYCFQGSHVPPTFGGGTKLEIK

From patent US20250313625A1 (ELPISCIENCE SUZHOU BIOPHARMA, published 2025)
